Data reported in PMC3161976, “Transportin 3 Promotes a Nuclear Maturation Step Required for Efficient HIV-1 Integration” (PLoS Pathogens, 2011).

B1: GST-Tnp3 (Transportin 3), full length (natural protein)
chain: MEGAKPTLQLVYQAVQALYHDPDPSGKERASFWLGELQRSVHAWEISDQLLQIRQDVESCYFAAQTMKMKIQTSFYELPTDSHASLRDSLLTHIQNLKDLSPVIVTQLALAIADLALQMPSWKGCVQTLVEKYSNDVTSLPFLLEILTVLPEEVHSRSLRIGANRRTEIIEDLAFYSSTVVSLLMTCVEKAGTDEKMLMKVFRCLGSWFNLGVLDSNFMANNKLLALLFEVLQQDKTSSNLHEAASDCVCSALYAIENVETNLPLAMQLFQGVLTLETAYHMAVAREDLDKVLNYCRIFTELCETFLEKIVCTPGQGLGDLRTLELLLICAGHPQYEVVEISFNFWYRLGEHLYKTNDEVIHGIFKAYIQRLLHALARHCQLEPDHEGVPEETDDFGEFRMRVSDLVKDLIFLIGSMECFAQLYSTLKEGNPPWEVTEAVLFIMAAIAKSVDPENNPTLVEVLEGVVRLPETVHTAVRYTSIELVGEMSEVVDRNPQFLDPVLGYLMKGLCEKPLASAAAKAIHNICSVCRDHMAQHFNGLLEIARSLDSFLLSPEAAVGLLKGTALVLARLPLDKITECLSELCSVQVMALKKLLSQEPSNGISSDPTVFLDRLAVIFRHTNPIVENGQTHPCQKVIQEIWPVLSETLNKHRADNRIVERCCRCLRFAVRCVGKGSAALLQPLVTQMVNVYHVHQHSCFLYLGSILVDEYGMEEGCRQGLLDMLQALCIPTFQLLEQQNGLQNHPDTVDDLFRLATRFIQRSPVTLLRSQVVIPILQWAIASTTLDHRDANCSVMRFLRDLIHTGVANDHEEDFELRKELIGQVMNQLGQQLVSQLLHTCCFCLPPYTLPDVAEVLWEIMQVDRPTFCRWLENSLKGLPKETTVGAVTVTHKQLTDFHKQVTSAEECKQVCWALRDFTRLFR
notes: also called GST-Tnp3 (FL); TRN-SR2; source: E. coli BL21(DE3), purified (glutathione-Sepharose beads, dialysis); not shown: GST, N-terminal, kept
B2: GST-Tnp3 DC880 deletion mutant (domain or fragment)
chain: MEGAKPTLQLVYQAVQALYHDPDPSGKERASFWLGELQRSVHAWEISDQLLQIRQDVESCYFAAQTMKMKIQTSFYELPTDSHASLRDSLLTHIQNLKDLSPVIVTQLALAIADLALQMPSWKGCVQTLVEKYSNDVTSLPFLLEILTVLPEEVHSRSLRIGANRRTEIIEDLAFYSSTVVSLLMTCVEKAGTDEKMLMKVFRCLGSWFNLGVLDSNFMANNKLLALLFEVLQQDKTSSNLHEAASDCVCSALYAIENVETNLPLAMQLFQGVLTLETAYHMAVAREDLDKVLNYCRIFTELCETFLEKIVCTPGQGLGDLRTLELLLICAGHPQYEVVEISFNFWYRLGEHLYKTNDEVIHGIFKAYIQRLLHALARHCQLEPDHEGVPEETDDFGEFRMRVSDLVKDLIFLIGSMECFAQLYSTLKEGNPPWEVTEAVLFIMAAIAKSVDPENNPTLVEVLEGVVRLPETVHTAVRYTSIELVGEMSEVVDRNPQFLDPVLGYLMKGLCEKPLASAAAKAIHNICSVCRDHMAQHFNGLLEIARSLDSFLLSPEAAVGLLKGTALVLARLPLDKITECLSELCSVQVMALKKLLSQEPSNGISSDPTVFLDRLAVIFRHTNPIVENGQTHPCQKVIQEIWPVLSETLNKHRADNRIVERCCRCLRFAVRCVGKGSAALLQPLVTQMVNVYHVHQHSCFLYLGSILVDEYGMEEGCRQGLLDMLQALCIPTFQLLEQQNGLQNHPDTVDDLFRLATRFIQRSPVTLLRSQVVIPILQWAIASTTLDHRDANCSVMRFLRDLIHTGVANDHEEDFELRKELIGQVMNQLGQQLVSQLLHTCCFCLPPYTLPDVAEVLWEIMQVDRPTFCRWLENSLKGLP
notes: Transportin 3 (Tnp3), human, C-terminal deletion mutant DC880; made by PCR from pGST-TRN-SR2 with the Tnp3 forward primer (from the start ATG) and the DC880 reverse primer, cloned into pGEX-2T; source: E. coli BL21(DE3), purified (glutathione-Sepharose beads, Superdex 200 gel filtration); not shown: GST, N-terminal, kept
B3: GST-Tnp3 DC825 deletion mutant (domain or fragment)
chain: MEGAKPTLQLVYQAVQALYHDPDPSGKERASFWLGELQRSVHAWEISDQLLQIRQDVESCYFAAQTMKMKIQTSFYELPTDSHASLRDSLLTHIQNLKDLSPVIVTQLALAIADLALQMPSWKGCVQTLVEKYSNDVTSLPFLLEILTVLPEEVHSRSLRIGANRRTEIIEDLAFYSSTVVSLLMTCVEKAGTDEKMLMKVFRCLGSWFNLGVLDSNFMANNKLLALLFEVLQQDKTSSNLHEAASDCVCSALYAIENVETNLPLAMQLFQGVLTLETAYHMAVAREDLDKVLNYCRIFTELCETFLEKIVCTPGQGLGDLRTLELLLICAGHPQYEVVEISFNFWYRLGEHLYKTNDEVIHGIFKAYIQRLLHALARHCQLEPDHEGVPEETDDFGEFRMRVSDLVKDLIFLIGSMECFAQLYSTLKEGNPPWEVTEAVLFIMAAIAKSVDPENNPTLVEVLEGVVRLPETVHTAVRYTSIELVGEMSEVVDRNPQFLDPVLGYLMKGLCEKPLASAAAKAIHNICSVCRDHMAQHFNGLLEIARSLDSFLLSPEAAVGLLKGTALVLARLPLDKITECLSELCSVQVMALKKLLSQEPSNGISSDPTVFLDRLAVIFRHTNPIVENGQTHPCQKVIQEIWPVLSETLNKHRADNRIVERCCRCLRFAVRCVGKGSAALLQPLVTQMVNVYHVHQHSCFLYLGSILVDEYGMEEGCRQGLLDMLQALCIPTFQLLEQQNGLQNHPDTVDDLFRLATRFIQRSPVTLLRSQVVIPILQWAIASTTLDHRDANCSVMRFLRDLIHTGVANDHEEDFELRKELIGQV
notes: Transportin 3 (Tnp3), human, lacking the last C-terminal 98 residues; made by PCR from pGST-TRN-SR2 with the Tnp3 forward primer (from the start ATG) and the DC825 reverse primer, cloned into pGEX-2T; also called ΔC; C-term deleted Tnp3; source: E. coli BL21(DE3), purified (glutathione-Sepharose beads, Superdex 200 gel filtration); not shown: GST, N-terminal, kept

target: RanQ69L-GTP (UniProt P62826 1-216, Q69L); assay: pull-down; GST-Tnp3 or its deletion mutants held on glutathione-Sepharose 4B beads, with RanQ69L-GTP and G2 tRNA, equimolar tRNA and Tnp3; binding buffer 50 mM Hepes pH 7.3, 200 mM NaCl, 2 mM Mg(Ac)2, 10 µM GTP; 4°C; 15% SDS-PAGE and silver staining; conditions: both partners purified

Question: Does B1 bind?
Answer: binds

Question: Does B2 bind?
Answer: binds

Question: Does B3 bind?
Answer: binds
